Where two headings read alike, the source gives them in different places.
B1: DL3B585 (bispecific antibody, human IgG1, lambda, L234A L235A)
scFv: DIQMTQSPSSLSASVGDRVTITCRASQGISNYLAWFQQKPGKAPKSLIYAASSLQSGVPSKFSGSGSGTDFTLTISSLQPEDFATYYCQQYNSYPYTFAQGTKLEIKGGSEGKSSGSGSESKSTGGSQVQLVQSGAEVKKPGASVKVSCKASGNTFTNYYIHWVRQAPGQGLEWMGIINPSGGSTSYAQKLQGRMTMTRDTSTSTVYMELSSLRSEDTAVYFCARQGPFIGDAFDIWGQGTMVTVSSEPKSSDKTHTCPPCPAPEAAGGPSVFLFPPKPKDTLMISRTPEVTCVVVSVSHEDPEVKFNWYVDGVEVHNAKTKPREEQYNSTYRVVSVLTVLHQDWLNGKEYKCKVSNKALPAPIEKTISKAKGQPREPQVYVLPPSREEMTKNQVSLLCLVKGFYPSDIAVEWESNGQPENNYLTWPPVLDSDGSFFLYSKLTVDKSRWQQGNVFSCSVMHEALHNHYTQKSLSLS
heavy: QVQLQQSGPRLVRPSQTLSLTCAISGDSVFNNNAAWSWIRQSPSRGLEWLGRTYYRSKWLYDYAVSVKSRITVNPDTSRNQFTLQLNSVTPEDTALYYCARGYSSSFDYWGQGTLVTVSSASTKGPSVFPLAPSSKSTSGGTAALGCLVKDYFPEPVTVSWNSGALTSGVHTFPAVLQSSGLYSLSSVVTVPSSSLGTQTYICNVNHKPSNTKVDKKVEPKSCDKTHTCPPCPAPEAAGGPSVFLFPPKPKDTLMISRTPEVTCVVVSVSHEDPEVKFNWYVDGVEVHNAKTKPREEQYNSTYRVVSVLTVLHQDWLNGKEYKCKVSNKALPAPIEKTISKAKGQPREPQVYVYPPSREEMTKNQVSLTCLVKGFYPSDIAVEWESNGQPENNYKTTPPVLDSDGSFALVSKLTVDKSRWQQGNVFSCSVMHEALHNHYTQKSLSLSPG
light: QSALTQPASVSGSPGQSITISCTGTSSNIGTYKFVSWYQQHPDKAPKVLLYEVSKRPSGVSSRFSGSKSGNTASLTISGLQAEDQADYHCVSYAGSGTLLFGGGTKLTVLGQPKAAPSVTLFPPSSEELQANKATLVCLISDFYPGAVTVAWKADSSPVKAGVETTTPSKQSNNKYAASSYLSLTPEQWKSHRSYSCQVTHEGSTVEKTVAPTECS
notes: DLL3 arm: DL3B279-LH-scFv-Fc; CD3 arm: CD3B376-Fab-Fc; also called CD3B376-Fab; DL3B279-LH-scFv
B2: DL3B587 (bispecific antibody, human IgG1, kappa, L234A L235A)
scFv: DIQMTQSPSSLSASVGDRVTITCRASQGISNYLAWFQQKPGKAPKSLIYAASSLQSGVPSKFSGSGSGTDFTLTISSLQPEDFATYYCQQYNSYPYTFAQGTKLEIKGGSEGKSSGSGSESKSTGGSQVQLVQSGAEVKKPGASVKVSCKASGNTFTNYYIHWVRQAPGQGLEWMGIINPSGGSTSYAQKLQGRMTMTRDTSTSTVYMELSSLRSEDTAVYFCARQGPFIGDAFDIWGQGTMVTVSSEPKSSDKTHTCPPCPAPEAAGGPSVFLFPPKPKDTLMISRTPEVTCVVVSVSHEDPEVKFNWYVDGVEVHNAKTKPREEQYNSTYRVVSVLTVLHQDWLNGKEYKCKVSNKALPAPIEKTISKAKGQPREPQVYVLPPSREEMTKNQVSLLCLVKGFYPSDIAVEWESNGQPENNYLTWPPVLDSDGSFFLYSKLTVDKSRWQQGNVFSCSVMHEALHNHYTQKSLSLS
heavy: EVQLVESGGGLVKPGGSLRLSCAASGFTFSRYNMNWVRQAPGKGLEWVSSISTSSNYIYYADSVKGRFTFSRDNAKNSLDLQMSGLRAEDTAIYYCTRGWGPFDYWGQGTLVTVSSASTKGPSVFPLAPSSKSTSGGTAALGCLVKDYFPEPVTVSWNSGALTSGVHTFPAVLQSSGLYSLSSVVTVPSSSLGTQTYICNVNHKPSNTKVDKKVEPKSCDKTHTCPPCPAPEAAGGPSVFLFPPKPKDTLMISRTPEVTCVVVSVSHEDPEVKFNWYVDGVEVHNAKTKPREEQYNSTYRVVSVLTVLHQDWLNGKEYKCKVSNKALPAPIEKTISKAKGQPREPQVYVYPPSREEMTKNQVSLTCLVKGFYPSDIAVEWESNGQPENNYKTTPPVLDSDGSFALVSKLTVDKSRWQQGNVFSCSVMHEALHNHYTQKSLSLSPG
light: DIQMTQSPSSLSASVGDRVTITCRARQSIGTAIHWYQQKPGKAPKLLIKYASESISGVPSRFSGSGSGTDFTLTISSLQPEDFATYYCQQSGSWPYTFGQGTKLEIKRTVAAPSVFIFPPSDEQLKSGTASVVCLLNNFYPREAKVQWKVDNALQSGNSQESVTEQDSKDSTYSLSSTLTLSKADYEKHKVYACEVTHQGLSSPVTKSFNRGEC
notes: DLL3 arm: DL3B279-LH-scFv-Fc; CD3 arm: CD3W245-Fab-Fc; also called CD3W245-Fab; DL3B279-LH-scFv
B3: D3C3B80 (bispecific antibody, human IgG1, lambda, L234A L235A)
scFv: DIQMTQSPSSLSASVGDRVTITCRASQGISNYLAWFQQKPGKAPKSLIYAASSLQSGVPSKFSGSGSGTDFTLTISSLQPEDFATYYCQQYNSYPYTFGQGTKLEIKGGSEGKSSGSGSESKSTGGSQVQLVQSGAEVKKPGASVKVSCKASGQTFTNYYIHWVRQAPGQGLEWMGIINPSGGSTSYAQKLQGRMTMTRDTSTSTVYMELSSLRSEDTAVYFCARQGPFIGDAFDIWGQGTTVTVSSEPKSSDKTHTCPPCPAPEAAGGPSVFLFPPKPKDTLMISRTPEVTCVVVSVSHEDPEVKFNWYVDGVEVHNAKTKPREEQYNSTYRVVSVLTVLHQDWLNGKEYKCKVSNKALPAPIEKTISKAKGQPREPQVYVLPPSREEMTKNQVSLLCLVKGFYPSDIAVEWESNGQPENNYLTWPPVLDSDGSFFLYSKLTVDKSRWQQGNVFSCSVMHEALHNHYTQKSLSLSPGK
heavy: QVQLQQSGPRLVRPSQTLSLTCAISGDSVFNNNAAWSWIRQSPSRGLEWLGRTYYRSKWLYDYAVSVKSRITVNPDTSRNQFTLQLNSVTPEDTALYYCARGYSSSFDYWGQGTLVTVSSASTKGPSVFPLAPSSKSTSGGTAALGCLVKDYFPEPVTVSWNSGALTSGVHTFPAVLQSSGLYSLSSVVTVPSSSLGTQTYICNVNHKPSNTKVDKKVEPKSCDKTHTCPPCPAPEAAGGPSVFLFPPKPKDTLMISRTPEVTCVVVSVSHEDPEVKFNWYVDGVEVHNAKTKPREEQYNSTYRVVSVLTVLHQDWLNGKEYKCKVSNKALPAPIEKTISKAKGQPREPQVYVYPPSREEMTKNQVSLTCLVKGFYPSDIAVEWESNGQPENNYKTTPPVLDSDGSFALVSKLTVDKSRWQQGNVFSCSVMHEALHNHYTQKSLSLSPGK
light: QSALTQPASVSGSPGQSITISCTGTSSNIGTYKFVSWYQQHPDKAPKVLLYEVSKRPSGVSSRFSGSKSGNTASLTISGLQAEDQADYHCVSYAGSGTLLFGGGTKLTVLGQPKAAPSVTLFPPSSEELQANKATLVCLISDFYPGAVTVAWKADSSPVKAGVETTTPSKQSNNKYAASSYLSLTPEQWKSHRSYSCQVTHEGSTVEKTVAPTECS
notes: DLL3 arm: DL3B279 variant LH-scFv-Fc (ZW); CD3 arm: CD3B376-K477-Fab-Fc; also called CD3B376-Fab

Tests used:
[1] = target: T1, human DLL3 on DLL3+ tumor cells (human, UniProt Q9NYJ7 27-618); test: cell-based or functional assay
T1 sequence: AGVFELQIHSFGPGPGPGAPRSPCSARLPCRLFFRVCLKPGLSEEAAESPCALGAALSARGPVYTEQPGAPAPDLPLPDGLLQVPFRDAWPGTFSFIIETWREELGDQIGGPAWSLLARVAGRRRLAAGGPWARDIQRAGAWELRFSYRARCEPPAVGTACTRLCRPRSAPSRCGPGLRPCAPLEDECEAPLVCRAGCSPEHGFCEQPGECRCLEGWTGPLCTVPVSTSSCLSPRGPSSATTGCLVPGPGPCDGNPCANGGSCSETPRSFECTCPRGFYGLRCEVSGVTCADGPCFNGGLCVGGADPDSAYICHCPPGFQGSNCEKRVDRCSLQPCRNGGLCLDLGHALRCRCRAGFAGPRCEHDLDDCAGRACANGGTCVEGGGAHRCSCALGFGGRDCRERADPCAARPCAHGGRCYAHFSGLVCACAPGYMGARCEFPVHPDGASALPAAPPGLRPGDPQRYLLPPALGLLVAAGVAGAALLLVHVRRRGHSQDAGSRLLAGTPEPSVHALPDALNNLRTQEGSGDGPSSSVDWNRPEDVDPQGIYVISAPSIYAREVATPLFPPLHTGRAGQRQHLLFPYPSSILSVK

[2] = target: T2, recombinant human DLL3 (Example 9, construct not named) (human, UniProt Q9NYJ7 27-492, limits assumed); test: SPR (Biacore T200), antibody captured by goat anti-Fc on a C1 chip, DLL3 titrated
T2 construct: also called DLL3 antigen
T2 sequence: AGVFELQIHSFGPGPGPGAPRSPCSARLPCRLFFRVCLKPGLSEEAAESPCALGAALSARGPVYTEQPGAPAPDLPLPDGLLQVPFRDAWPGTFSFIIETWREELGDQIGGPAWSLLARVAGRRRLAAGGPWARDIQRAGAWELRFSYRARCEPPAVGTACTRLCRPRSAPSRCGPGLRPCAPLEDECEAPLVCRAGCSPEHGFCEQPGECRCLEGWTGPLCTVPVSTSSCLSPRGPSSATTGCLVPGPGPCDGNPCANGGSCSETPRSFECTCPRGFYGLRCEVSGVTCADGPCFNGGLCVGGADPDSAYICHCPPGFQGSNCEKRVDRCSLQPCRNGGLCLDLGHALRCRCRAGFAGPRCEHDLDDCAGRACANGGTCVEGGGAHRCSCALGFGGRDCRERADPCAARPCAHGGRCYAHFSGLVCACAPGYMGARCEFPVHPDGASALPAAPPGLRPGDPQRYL

[3] = target: T2, recombinant human DLL3 (Example 9, …); test: as above; remark: listed apart in the source
[4] = target: T3, human CD3 (CD3 epsilon as part of the T cell receptor complex) on cells (human, UniProt P07766 23-207); test: flow cytometry on human pan T cells, antibody titrated 3-fold from 100 nM, AlexaFluor 647 anti-human secondary antibody, GEO Mean
T3 construct: also called CD3 on Jurkat cells; CD3 on human pan T cells

[5] = target: T3, human CD3 (CD3 epsilon as part of the T …); test: flow cytometry on human T cells (sheet title 'T cells', GEO Mean against concentration; assay as told in p-1138)

T3 sequence (P07766 23-207 limits assumed, one chain of several): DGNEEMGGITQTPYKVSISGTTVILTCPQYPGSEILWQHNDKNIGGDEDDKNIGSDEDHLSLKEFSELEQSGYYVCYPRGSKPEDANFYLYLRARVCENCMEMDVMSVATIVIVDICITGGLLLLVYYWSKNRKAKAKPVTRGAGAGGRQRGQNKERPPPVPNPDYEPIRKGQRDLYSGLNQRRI

Binder | Cytotoxicity (% Lysis), SHP-77, whole PBMCs, 1:1 ET ratio, 30 nM [1] [%] | Kd [2] [nM] | Kd [3] [nM] | binding result [4] | binding result [5]
B1 | 58.1 | 0.024 | 0.024 |  | 
B2 | 83.3 | 0.031 |  | binds | 
B3 |  |  | 0.033 |  | binds
